Biological target: GFP-tagged mProVII chains (in the FRET assay) (mouse)
Assay: FRET or BRET

FRET efficiency EF: 5.83%
Substance: RFP-tagged wild type mouse mini-procollagen VII α chain (domain or fragment)
